By Kd is commonly meant a measure of binding affinity in units of concentration. A word on the koff: it is the rate constant with which the complex falls apart. Low readings indicate slow dissociation, high ones fast dissociation. The term kon denotes the rate constant with which the complex forms. A low value points to slower complex formation.

Several values for one entry are separate records, joined by “and”; a condition that tells them apart may be missing. Identical values can stand only once. Ends that are not written are not given here. * marks the point of attachment. Biotin = O=C1N[C@H]2[C@H](CS[C@H]2CCCCC(=O)*)N1

This note sets out measurements from patent publication US20220135656A1 (NIMA ACQUISITION, published 2022).

The target in one assay is T1, peptide 43 (QQQQQQQQQQ).
T1 peptide: Biotin-QQQQQQQQQQ
In words: peptide ELISA, biotinylated peptide captured on streptavidin. Background: ELISA stands for enzyme-linked immunosorbent assay.

Assay [1] has as its target T2, PWG-gliadin (wheat).
T2 construct: also called Gluten; glutenin
In words: SPR (Biacore T200), gliadin amine-coupled, antibody as analyte; 'as shown in the examples'.

For assay [2], the target named is T3, peptide PQQPYPQPQP (SEQ ID NO: 50).
T3 construct: Crude 10-mer of the peptide library from antigen 1/2/3; also called group A peptide
T3 peptide: Biotin-PQQPYPQPQP
The assay is described as follows: peptide ELISA; biotinylated crude peptide on streptavidin, mAb 0.5 µg/ml; value given for group A.

Assay [3] deals with T4, peptide PQPQLPYPQP (SEQ ID NO: 51).
T4 construct: Crude 10-mer of the peptide library; also called group A peptide
T4 peptide: Biotin-PQPQLPYPQP
Described as above.

In assay [4] the target is T5, peptide QLPYPQPQLP (SEQ ID NO: 52).
T5 construct: Crude 10-mer of the peptide library; also called group A peptide
T5 peptide: Biotin-QLPYPQPQLP
The description is as above.

The target in assay [5] is T6, peptide PQLPYPQPQP (SEQ ID NO: 53).
T6 construct: Crude 10-mer of the peptide library; also called group A peptide
T6 peptide: Biotin-PQLPYPQPQP
Described as above.

Assay [6] has as its target T7, peptide PPQQPYPQPQ (SEQ ID NO: 54).
T7 construct: Crude 10-mer of the peptide library; also called group A peptide
T7 peptide: Biotin-PPQQPYPQPQ
The assay is described as above.

For assay [7], the target named is T8, peptide SPQQPYPQPQ (SEQ ID NO: 55).
T8 construct: Crude 10-mer of the peptide library; also called group A peptide
T8 peptide: Biotin-SPQQPYPQPQ
The assay is described as above.

The target of assay [8] is T9, peptide QPQLPYPQPQ (SEQ ID NO: 56).
T9 construct: Crude 10-mer of the peptide library; also called group A peptide
T9 peptide: Biotin-QPQLPYPQPQ
Described as above.

Assay [9] deals with T10, peptide PQLPYPQPQL (SEQ ID NO: 57).
T10 construct: Crude 10-mer of the peptide library; also called group A peptide
T10 peptide: Biotin-PQLPYPQPQL
Described as above.

In assay [10] the target is T11, peptide PQQPYPQSQP (SEQ ID NO: 58).
T11 construct: Crude 10-mer of the peptide library; also called group A peptide
T11 peptide: Biotin-PQQPYPQSQP
The assay is described as above.

The target in assay [11] is T12, peptide PPQLPYPQPP (SEQ ID NO: 59).
T12 construct: Crude 10-mer of the peptide library; also called group A peptide
T12 peptide: Biotin-PPQLPYPQPP
Described as above.

In assay [12] the target is T13, peptide PFPPQQPYPQ (SEQ ID NO: 60).
T13 construct: Crude 10-mer of the peptide library; also called group B peptide
T13 peptide: Biotin-PFPPQQPYPQ
In words: peptide ELISA; biotinylated crude peptide on streptavidin, mAb 0.5 µg/ml; value given for group B.

Assay [13] concerns the target T14, peptide YPQPQLPYPQ (SEQ ID NO: 61).
T14 construct: Crude 10-mer of the peptide library; also called group B peptide
T14 peptide: Biotin-YPQPQLPYPQ
The description is as above.

Assay [14] has as its target T15, peptide PFRPQQPYPQ (SEQ ID NO: 62).
T15 construct: Crude 10-mer of the peptide library; also called group B peptide
T15 peptide: Biotin-PFRPQQPYPQ
The description is as above.

Assay [15] concerns the target T2, PWG-gliadin. The assay is described as follows: SPR, Biacore T200; Glutenin amine-coupled to the chip, antibody as analyte 3-243 nM; 1:1 binding fit; Chi2 16 RU2, U-value 2. On the procedure: (§1) In this experiment, glutenin protein was coated through amine coupling method, the antibodies were flowed over the sensor chip as analytes. The experiment was carried out using the following protocol.
(§2) Coat glutenin onto the Series S Sensor Chip CM5 via primary amine groups using the following conditions: [0123] (1) Equilibrate: HBS-EP, flow rate 10 μl/min, 5 min; [0124] […] (3) Couple ligand: inject glutenin (15 μg/ml, 10 mM sodium acetate, pH 4.5), flow rate 10 μl/min, until ˜300 RU of glutenin is coated; [0126] (4) Deactivate excess reactive groups: inject ethanolamine, flow rate 10 μl/min, 7 min.
(§3) In this study, the binding affinities between glutenin and three monoclonal antibodies were determined. The experiment was carried out where glutenin was amine coupled to the sensor chip and antibodies were used as analytes. The result of is with good curve fitting and low U-values, and thus is reliable.
In general terms: In SPR one partner is held on a chip, and binding of the other changes the refractive index at the surface.

Assay [16] addresses T13, peptide PFPPQQPYPQ (SEQ ID NO: 60). In words: peptide ELISA; group B; the number is missing in the cell.
Assay [17] deals with T14, peptide YPQPQLPYPQ (SEQ ID NO: 61). The assay is described as above.
Assay [18] concerns the target T15, peptide PFRPQQPYPQ (SEQ ID NO: 62). Described as above.
For assay [19], the target named is T2, PWG-gliadin. In words: SPR, Biacore T200; Glutenin amine-coupled to the chip, antibody as analyte 3-243 nM; 1:1 binding fit; Chi2 29.9 RU2, U-value 2. On the procedure:
as §1, §2, §3

B1: 14G11 monoclonal antibody (antibody, IgG1, V domains shown)
VH: QIQLVQSGPEMKKPGETVKIFCKASGYTLTDYSMHWVKQAPGKGLKWMGWINTETGEPTYADDFKGRCAFSLETSVSTAFLQINNLKNEDMGTYFCASSGAWFSYWGQGTLVTVSA
VL: DVLLTQTPLSLPVSLGDQASISCRSSQTIVQINGNTHLEWFLQKPGQSPKLLIYKVSNRFSGVPDRFSGSGSGTDFTLKISRVEAEDLGIYYCFQGSHVPFTFGSGTKLEIK
notes: also called 14G11 monoclonal Ab
On to B1, for which the binding result in the assay with peptide 43 (QQQQQQQQQQ) is “no binding”. Besides, the Kd with PWG-gliadin [1] was < 50 nM and ~30 nM; with PWG-gliadin [15], 30.6 nM. In addition, the OD450nm in assay [2], in assay [3], in assay [4], in assay [5], in assay [6] and in [7] was about 1 each time. Also, the OD450nm in assay [8] is about 1; in assay [9] it was about 1; in assay [10] it was about 1; in assay [11] it was about 1; in assay [12], under 0.5; in assay [13] it was under 0.5. The molecule further registered an OD450nm in [14] of under 0.5. In the assay with PWG-gliadin [15], the koff worked out at 0.00225 s⁻¹. Moreover, the on-rate constant (kon) with PWG-gliadin [15] was determined as 73600 M⁻¹ s⁻¹.

B2: 13F6 monoclonal antibody (antibody, IgG2b, V domains shown)
VH: QIQLVQSGPELKKPGETVKISCKASGYTFTDYSMHWVRQAPGKGLKWMGWINTETGEPTYADDFKGRFAFSLETSASTAYLQINNLKNEDTATHFCAPSVAWFAYWGQGTLVTVST
VL: DVLMTQTPLSLSVSLGDQASISCRSSQSIVQSNGNTHLEWFLQKPGQSPKLLIYKVSNRFSGVPDRFSGSGSGTDFTLKISRVEAEDLGVYYCFQGSHVPFTFGSGTKLEIK
notes: also called 13F6 monoclonal Ab
On to B2, for which the binding result with peptide 43 (QQQQQQQQQQ) is recorded as “no binding”; in [16] it was “binds”; in assay [17], “binds”; in assay [18], “binds”. The Kd with PWG-gliadin [1] was < 10 nM and 5 nM to 6 nM (2×); in the assay with PWG-gliadin [19], 5.81 nM. In addition, the OD450nm in [2], in [3], in assay [4], in assay [5], in assay [6] and in [7] was about 2 each time. For the same molecule, the OD450nm in [8], in [9], in assay [10] and in assay [11] was about 2 throughout. In addition, the koff in the assay with PWG-gliadin [19] was determined as 0.000663 s⁻¹. The molecule further gave a kon with PWG-gliadin [19] of 114000 M⁻¹ s⁻¹.
